Experimental data reported in patent US20070092940A1.

Biological target: rabbit albumin (rabbit) (UniProt P49065)
Experiment: BIAcore kinetic analysis

Chain of rabbit albumin (rabbit) (P49065 25-608 limits assumed): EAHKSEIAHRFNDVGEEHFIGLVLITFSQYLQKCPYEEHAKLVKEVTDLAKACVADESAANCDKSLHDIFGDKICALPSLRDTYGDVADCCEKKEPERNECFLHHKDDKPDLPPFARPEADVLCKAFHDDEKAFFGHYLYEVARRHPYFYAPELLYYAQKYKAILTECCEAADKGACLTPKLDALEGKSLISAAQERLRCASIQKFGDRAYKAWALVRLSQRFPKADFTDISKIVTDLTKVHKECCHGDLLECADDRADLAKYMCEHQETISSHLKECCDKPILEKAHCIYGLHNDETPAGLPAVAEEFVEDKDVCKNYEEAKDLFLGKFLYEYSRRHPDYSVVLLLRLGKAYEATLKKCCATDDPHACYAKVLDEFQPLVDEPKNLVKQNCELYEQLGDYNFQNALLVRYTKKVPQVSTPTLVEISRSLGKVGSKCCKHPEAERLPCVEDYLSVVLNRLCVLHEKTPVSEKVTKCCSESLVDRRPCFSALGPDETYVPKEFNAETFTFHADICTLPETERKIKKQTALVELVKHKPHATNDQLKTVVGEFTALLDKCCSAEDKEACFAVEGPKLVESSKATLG

ABP-hu4D5Fabv8 wild type
Kd: 124 nM
